T1: 6xHis Grsp1_(2-400) (mouse, UniProt Q920B0-2 2-400)
T1 sequence (looked up): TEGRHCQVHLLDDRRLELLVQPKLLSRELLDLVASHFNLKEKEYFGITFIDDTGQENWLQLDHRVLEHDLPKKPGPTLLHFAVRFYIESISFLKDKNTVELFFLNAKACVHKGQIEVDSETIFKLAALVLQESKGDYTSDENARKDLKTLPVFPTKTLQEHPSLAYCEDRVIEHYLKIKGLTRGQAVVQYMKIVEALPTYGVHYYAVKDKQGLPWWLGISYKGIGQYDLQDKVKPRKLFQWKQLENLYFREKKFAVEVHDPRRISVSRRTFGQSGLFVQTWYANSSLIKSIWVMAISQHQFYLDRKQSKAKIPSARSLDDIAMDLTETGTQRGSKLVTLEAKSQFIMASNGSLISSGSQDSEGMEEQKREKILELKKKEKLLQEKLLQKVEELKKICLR

B1: 6xHis Grp1_(13-248) (domain or fragment, mouse, UniProt O08967 13-248, looked up)
chain: PEDLSLEEREELLDIRRRKKELIDDIERLKYEIAEVMTEIDNLTSVEESKTTQRNKQIAMGRKKFNMDPKKGIQFLIENDLLQSSPEDVAQFLYKGEGLNKTVIGDYLGERDDFNIKVLQAFVELHEFADLNLVQALRQFLWSFRLPGEAQKIDRMMEAFASRYCLCNPGVFQSTDTCYVLSFAIIMLNTSLHNHNVRDKPTAERFITMNRGINEGGDLPEELLRNLYESIKNEPF
B2: 6xHis Cytohesin-1_(2-244) (domain or fragment, human, UniProt Q15438 2-244, looked up)
chain: EEDDSYVPSDLTAEERQELENIRRRKQELLADIQRLKDEIAEVANEIENLGSTEERKNMQRNKQVAMGRKKFNMDPKKGIQFLIENDLLKNTCEDIAQFLYKGEGLNKTAIGDYLGERDEFNIQVLHAFVELHEFTDLNLVQALRQFLWSFRLPGEAQKIDRMMEAFAQRYCQCNNGVFQSTDTCYVLSFAIIMLNTSLHNPNVKDKPTVERFIAMNRGINDGGDLPEELLRNLYESIKNEPF
B3: 6xHis ARNO_(2-252) (domain or fragment, human, UniProt Q99418 2-252, looked up)
chain: EDGVYEPPDLTPEERMELENIRRRKQELLVEIQRLREELSEAMSEVEGLEANEGSKTLQRNRKMAMGRKKFNMDPKKGIQFLVENELLQNTPEEIARFLYKGEGLNKTAIGDYLGEREELNLAVLHAFVDLHEFTDLNLVQALRQFLWSFRLPGEAQKIDRMMEAFAQRYCLCNPGVFQSTDTCYVLSFAVIMLNTSLHNPNVRDKPGLERFVAMNRGINEGGDLPEELLRNLYDSIRNEPFKIPEDDGND

Assays:
6xHis Grsp1_(2-400) = target: T1, 6xHis Grsp1_(2-400); assay: SEC
SEC = target: the molecule itself; assay: SEC
AUC = target: the molecule itself; assay: AUC

Row | Binder | percent of Grsp1_(2-400) bound (6xHis Grsp1_(2-400)) [%] | stoichiometry N (SEC) | stoichiometry N (AUC)
1 | B1 | > 90 | 2 | –
2 | B2 | > 90 | – | –
3 | B3 | – | – | 2

From publication PMC2912425 (Biochemistry, 2010)
